Marks after values point to notes of the source that are not given here.
Columns and labels:
Assay type in all cases: biochemical
[1] = target: T1, recombinant light chain enterokinase (Bos taurus, UniProt P98072); experiment: Cleavage site test: digestion of synthetic test peptides to completion, HPLC and mass spectroscopy; conditions: for extent of enterokinase digestion: 36-48 hrs with 20U enterokinase, HPLC; for recovered product, product peak 1 / recovered product, product peak 2: 60 to 100 μg peptide digested to completion (36-48 hrs) with 20U enterokinase, reverse phase HPLC, electrospray MS
T1 construct: enterokinase cleavage using 30 nM recombinant light chain enterokinase (Novagen); purchased Novagen, Madison, Wis
Experimental: To further test the predicted cleavage site as well as the rates and extent of cleavage, seven test peptides shown in Table 6 were chemically synthesized, contacted with enterokinase, and analyzed by HPLC and mass spectrometric analysis.
To test the predicted cleavage site, i.e., following the acid-base dipeptide motif, 60 to 100 μg of each test peptide was digested to completion (36-48 hrs) with 20U of recombinant light chain enterokinase (Novagen) and analyzed by reverse phase HPLC. Product peaks were eluted with a water/acetonitrile (H2O/ACN) gradient and identified by electrospray mass spectroscopy.
“% ACN” estimates the position in the H2O/Acetonitrile gradient at which the indicated cleavage fragment eluted. The expected product peaks for GDDDDK (residue 1-6 SEQ ID NO:197) and NKAKDR (residues 1-6, SEQ ID NO:201) were not detected by HPLC, but the cleavage site could be determined from analyzing the alternate product peak, i.e., the peptide to the C-terminal side of the cleavage site.

enterokinase = target: T2, enterokinase (Bos taurus, UniProt P98072); experiment: Substrate competition with reference peptide GDDDDK-βNA; conditions: for reference peptide rate (Vb): rate of reference peptide GDDDDK-βNA 250 μM in competition with the test peptide 250 μM; for ratio (Va/Vb): test peptide cleavage rate to reference peptide cleavage rate, 250 μM each; for ratio kcat/Km, times greater than that of the reference peptide: tested in competition at 250 μM
T2 construct: provide a substrate specifically recognized and cleaved by recombinant light chain enterokinase
Experimental: Rates of substrate hydrolysis depends on several factors, namely, concentration of enzyme and substrate, Km (Michaelis constant) values, and kcat (catalytic rate constant) values. One way to compare the relative efficiencies with which a protease hydrolyses two substrates (a and b) is to simultaneously incubate both substrates in a single reaction with the enzyme and measure the rates of product formation for each (Va and Vb). If the total product formation is low (<10%), the starting concentrations of the two competing substrates are the same, and the reaction is performed at steady-state: Va/Vb=(kcat/Km)a/(kcat/Km)b Relative ratios of kcat/Km can be determined from relative rates of substrate hydrolysis.
To compare the relative efficiency of hydrolysis by enterokinase, reference peptide (GDDDDK-βNA, 250 μM, SEQ ID NO:203) was incubated simultaneously with one of the test peptides (250 μM), treated with enterokinase, and the relative rate of product formation measured. The products were quantitated by HPLC and initial cleavage rates calculated.

[2] = target: T1, recombinant light chain enterokinase; experiment: Relative rate of cleavage of synthetic peptides by HPLC; conditions: relative to GDDDDK-βNA; peptides tested individually at 500 μM
[3] = target: T1, recombinant light chain enterokinase; experiment: as above; conditions: about 500 μM peptide; for cleavage rate compared with the other peptides (in words): 50 nM enterokinase; for Cleavage Rate: 50 nM recombinant light chain enterokinase
Experimental: Peptides were digested with enterokinase and aliquots tested at timed intervals by HPLC to quantitate the extent of cleavage. For each test peptide, about 500 μM of peptide were digested with 50 nM of recombinant light chain enterokinase. The seven synthetic peptides were compared with a commercially available standard EK cleavage substrate, GDDDDK-β-naphthylamine (GDDDDK-βNA, SEQ ID NO:203; from BACHEM, King of Prussia, Pa.), having a fluorescent leaving group that increases in fluorescence when it is cleaved.

[4] = target: T1, recombinant light chain enterokinase; experiment: Phage ELISA kinetics of enterokinase cleavage of phage isolates; conditions: streptavidin-bound phage, 30 nM or 130 nM enterokinase, 30 minutes
Experimental: FIG. 1 and FIG. 2 show the time course of enterokinase cleavage of phage isolates from five rounds of screening a substrate phage library. The tested isolates were those having recurring sequences among 90 sequenced isolates. The isolates are tested in comparison with an isolate (5-H11) containing the known enterokinase cleavage sequence DDDDK and an unselected phage displaying a polypeptide not recognized by enterokinase.
Phage displaying each of the sequences shown in Table 5 were tested individually for kinetics of enterokinase cleavage using a phage ELISA. Streptavidin-bound phage were treated with either 30 nM or 130 nM enterokinase for 30 minutes. The time courses of phage release are shown in FIG. 1 (release at 30 nM EK) and FIG. 2 (release at 130 nM EK). Phage from the unselected substrate library were used as a control, i.e., isolate 5-F08. (SEQ ID NO:196).

T1 sequence (P98072 801-1035 limits assumed): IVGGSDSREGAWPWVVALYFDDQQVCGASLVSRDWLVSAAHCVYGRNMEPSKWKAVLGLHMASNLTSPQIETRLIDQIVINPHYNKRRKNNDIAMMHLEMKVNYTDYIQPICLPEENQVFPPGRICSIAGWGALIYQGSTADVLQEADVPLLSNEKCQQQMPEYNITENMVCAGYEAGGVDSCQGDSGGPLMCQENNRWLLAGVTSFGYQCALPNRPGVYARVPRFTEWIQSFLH
T2 sequence (P98072 801-1035 limits assumed): as above

Row | Substance | extent of enterokinase digestion [1] | extent of enterokinase digestion ([1]; listed as negative control peptide) | reference peptide rate (Vb) (enterokinase) | ratio (Va/Vb) (enterokinase) | ratio kcat/Km, times greater than that of the reference peptide (enterokinase) | rate relative to standard substrate [2] | cleavage rate compared with the other peptides (in words) [3] | Cleavage Rate [3] | recovered product, product peak 1 [1] | recovered product, product peak 2 [1] | enterokinase cleavage rate of phage isolate (phage release) [4]
1 | AVLSNVMFT (AVLSNVMFI; negative control in EK cleavage experiment) [AVLSNVMFII, negative control test peptide, reference compound] | not cleaved at all | No cleavage | – | – | – | – | – | – | – | – | –
2 | DINDDRSLF (synthetic enterokinase cleavage sequence) | – | – | 0.006 | 30 | 30 | 3.1 | cleaved significantly more rapidly than the two control peptides | 1/43 | DINDDR | SLF | –
3 | DINDDRSLFSESS (synthetic enterokinase cleavage sequence) [Isolate 5-H04, round 5 phage isolate] | – | – | – | – | – | – | – | – | – | – | most readily cut
4 | GDDDDK-β-naphthylamine [GDDDDK-βNA, reference compound] | – | – | – | – | – | (1.0) | cleaved at nearly equal rates and more rapidly than the remaining three peptides tested | 0.46 nmol/min | – | – | –
5 | GDDDDKIYV (natural enterokinase cleavage sequence) [reference compound] | – | – | 0.027 | 1.0 | – | 0.7 | cleaved at nearly equal rates and more rapidly than the remaining three peptides tested | 0.34 nmol/min | – | IYV | –
6 | GNYTDRMFI (synthetic enterokinase cleavage sequence) | – | – | 0.011 | 3.5 | 3.5 | 1.8 | cleaved significantly more rapidly than the two control peptides | 0.81 nmol/min | GNYTDR | MET | –
7 | GNYTDRRFI (synthetic enterokinase cleavage sequence) | – | – | – | – | – | 0.4 | – | 0.18 nmol/min | GNYTDR | RFI | –
8 | GNYTDRYFI (commercial synthetic enterokinase cleavage substrate) | – | – | – | – | – | 0.5 | – | 0.24 nmol/min | GNYTDR | YFI | –
9 | MGDDDDKIYVYKT (synthetic enterokinase cleavage sequence) [Isolate 5-H11, reference compound] | – | – | – | – | – | – | – | – | – | – | slower than for at least three of the other isolates
10 | NKAKDRMFI (synthetic enterokinase cleavage sequence) | – | – | – | – | – | 0.6 | – | ~0.26* nmole/min. | – | MFI | –

Reference: patent US6906176B2, “Enterokinase cleavage sequences” (Dyax Corp., priority 2000, dated 2005)
